Test results published in publication PMC4864278.

Columns and labels:
[1] = biological target: TRIM32 extended RING domain (UniProt Q13049); assay: SAXS; batch SAXS, Diamond Light Source beamline B21; at least three dilutions of each construct; concentrations as in Table 2
[2] = biological target: TRIM32 extended RING domain (UniProt Q13049); assay: SEC-MALS; SEC-MALLS, Superdex 75 or Superdex 200 10/300 GL, 25°C, 20 mM HEPES pH 7.5, 100 mM NaCl (TRIM32) or 150 mM NaCl (TRIM25), 0.5 mM TCEP, 3 mM NaN3; samples run over a range of concentrations

Sequence of TRIM32 extended RING domain (from UniProt Q13049 1-93) (domain or fragment) (Q13049 1-93): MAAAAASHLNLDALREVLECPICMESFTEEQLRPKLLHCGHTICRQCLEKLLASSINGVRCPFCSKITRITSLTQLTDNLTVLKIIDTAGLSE

stoichiometry N [1]: 2
stoichiometry N [2]: 2
Substance: TRIM32 extended RING domain (from UniProt Q13049 1-93) (domain or fragment)
